In general, share remaining refers to the share of the starting amount still present when the sample was taken.

SMILES strings stand for the structures. Peptide text beside a SMILES is read from it. * marks the point of attachment. X1 = O=C(CCC(=O)*)O[C@@H](CO)[C@H]1OC(=O)C(OP(=O)(O)O)=C1O; X2 = O=C(CCC(=O)*)O[C@@H](CO)[C@H]1OC(=O)C(O)=C1O

This data set can be described thus: Stability in purified water by change of UV (254 nm) absorbance. The method, then:
Stability of each substance was evaluated, while being maintained at 25° C. and 50° C. for 30 days, by observing the change of UV (254 nm) absorbance.

[1] abbreviates: buffer, Remaining test substance (%).

With `C[C@@H](O)[C@H](NC(=O)[C@H](CCCCN)NC(=O)CCC(=O)O[C@@H](CO)[C@H]1OC(=O)C(O)=C1O)C(=O)N[C@H](C(=O)N[C@@H](CCCCN)C(=O)N[C@@H](CO)C(=O)O)[C@@H](C)O` [succinoyl ascorbyl pentapeptide] (X2-KTTKS-OH), the share remaining at 24 h, 10 μg/mL reads like this: (buffer, Remaining test substance (%), day 1, 25° C., 10 μg/mL in purified water) 60%; (buffer, Remaining test substance (%), day 1, 50° C., 10 μg/mL in purified water) 50%. Further, the fraction remaining at 48 h, 10 μg/mL is, setting by setting: (buffer, Remaining test substance (%), day 2, 25° C., 10 μg/mL in purified water) 20%; (buffer, Remaining test substance (%), day 2, 50° C., 10 μg/mL in purified water) 10%. Moreover, the share remaining at 72 h, 10 μg/mL turned out to be 10% (buffer, Remaining test substance (%), day 3, 25° C., 10 μg/mL in purified water) and 0% (buffer, Remaining test substance (%), day 3, 50° C., 10 μg/mL in purified water). Under “buffer, Remaining test substance (%), day 5, 50° C., 10 μg/mL in purified water”, this molecule yielded a share remaining at 120 h, 10 μg/mL of 0%. Moreover, for the setting “buffer, Remaining test substance (%), day 10, 50° C., 10 μg/mL in purified water”, the share remaining at 240 h, 10 μg/mL was determined as 0%. The molecule also gave a share remaining at 480 h, 10 μg/mL (buffer, Remaining test substance (%), day 20, 50° C., 10 μg/mL in purified water) of 0%. The share remaining at 720 h, 10 μg/mL (buffer, Remaining test substance (%), day 30, 50° C., 10 μg/mL in purified water) stood at 0%. The “Remaining test substance (%)” value is 100% (day 0, 25° C., 10 μg/mL in purified water); 100% (day 0, 50° C., 10 μg/mL in purified water); 0% (day 5, 25° C., 10 μg/mL in purified water); 0% (day 10, 25° C., 10 μg/mL in purified water); 0% (day 20, 25° C., 10 μg/mL in purified water); 0% (day 30, 25° C., 10 μg/mL in purified water).

Under setting [1], `C[C@@H](O)[C@H](NC(=O)[C@H](CCCCN)NC(=O)CCC(=O)O[C@@H](CO)[C@H]1OC(=O)C(OP(=O)(O)O)=C1O)C(=O)N[C@H](C(=O)N[C@@H](CCCCN)C(=O)N[C@@H](CO)C(=O)O)[C@@H](C)O` [Ic-1, 2-phospho-5-(succinyl-lysine-threonine-threonine-lysine-serine) ascorbic acid] (X1-KTTKS-OH) displayed a share remaining at 24 h, 10 μg/mL of 100%; a fraction remaining at 48 h, 10 μg/mL of 100%; an amount remaining at 72 h, 10 μg/mL of 100%; a fraction remaining at 120 h, 10 μg/mL of 100%. Under setting [1], this molecule showed a fraction remaining at 240 h, 10 μg/mL of 100%.

As to `O=C1O[C@H]([C@@H](O)CO)C(O)=C1O` [Vitamin C, ascorbic acid], the “Remaining test substance (%)” value is, setting by setting: (buffer, 0 day, 10 μg/mL) 100%; (buffer, 2 day, 10 μg/mL) 0%; (buffer, 3 day, 10 μg/mL) 0%; (buffer, 5 day, 10 μg/mL) 0%; (buffer, 10 day, 10 μg/mL) 0%; (buffer, 20 day, 10 μg/mL) 0%. Besides, the “Remaining test substance (%)” value (buffer, 30 day, 10 μg/mL) amounted to 0%.

(Values after patent US8829044B2, “Stabilized vitamin C derivatives having a peptide molecule, preparation method thereof, and composition containing the same” (Peotron Co. Ltd., priority 2006, dated 2014).)
